Key:
[1] = biological target: full-length wild-type gephyrin (Geph^WT) (human) (UniProt Q9NQX3); assay: SEC; analytical SEC (Superdex 6 increase or Superose 6 increase 10/300 GL) in grid buffer (25 mM Tris pH 7.5, 250 mM NaCl, 25 mM Arg/Glu, 5 mM β-mercaptoethanol, 1.5% sucrose); Geph^WT with a 3-fold excess of GlyR-loop; no filaments seen in SEC
[2] = biological target: the molecule itself; assay: cell-based or functional assay

full-length wild-type gephyrin (Geph^WT) (from UniProt Q9NQX3 1-736) (natural protein)
stoichiometry N [1]: 3

B1: isolated gephyrin E-domain, wild type (GephE^WT, residues 327–736) (domain or fragment, human, UniProt Q9NQX3 327-736, looked up)
chain: DKAFITVLEMTPVLGTEIINYRDGMGRVLAQDVYAKDNLPPFPASVKDGYAVRAADGPGDRFIIGESQAGEQPTQTVMPGQVMRVTTGAPIPCGADAVVQVEDTELIRESDDGTEELEVRILVQARPGQDIRPIGHDIKRGECVLAKGTHMGPSEIGLLATVGVTEVEVNKFPVVAVMSTGNELLNPEDDLLPGKIRDSNRSTLLATIQEHGYPTINLGIVGDNPDDLLNALNEGISRADVIITSGGVSMGEKDYLKQVLDIDLHAQIHFGRVFMKPGLPTTFATLDIDGVRKIIFALPGNPVSAVVTCNLFVVPALRKMQGILDPRPTIIKARLSCDVKLDPRPEYHRCILTWHHQEPLPWAQSTGNQMSSRLMSMRSANGLLMLPPKTEQYVELHKGEVVDVMVIGRL
sedimentation assay of in vitro phase separation (LLPS) with GlyR-LD: GephE in the pellet fraction against the sample without GlyR-LD [2]: ~10 fold
